Values of other authors as cited in article PMC10385628.

Biological target: neuropilin-1 (Homo sapiens) (UniProt O14786)
Sequence of UniProt O14786 (O14786 22-856): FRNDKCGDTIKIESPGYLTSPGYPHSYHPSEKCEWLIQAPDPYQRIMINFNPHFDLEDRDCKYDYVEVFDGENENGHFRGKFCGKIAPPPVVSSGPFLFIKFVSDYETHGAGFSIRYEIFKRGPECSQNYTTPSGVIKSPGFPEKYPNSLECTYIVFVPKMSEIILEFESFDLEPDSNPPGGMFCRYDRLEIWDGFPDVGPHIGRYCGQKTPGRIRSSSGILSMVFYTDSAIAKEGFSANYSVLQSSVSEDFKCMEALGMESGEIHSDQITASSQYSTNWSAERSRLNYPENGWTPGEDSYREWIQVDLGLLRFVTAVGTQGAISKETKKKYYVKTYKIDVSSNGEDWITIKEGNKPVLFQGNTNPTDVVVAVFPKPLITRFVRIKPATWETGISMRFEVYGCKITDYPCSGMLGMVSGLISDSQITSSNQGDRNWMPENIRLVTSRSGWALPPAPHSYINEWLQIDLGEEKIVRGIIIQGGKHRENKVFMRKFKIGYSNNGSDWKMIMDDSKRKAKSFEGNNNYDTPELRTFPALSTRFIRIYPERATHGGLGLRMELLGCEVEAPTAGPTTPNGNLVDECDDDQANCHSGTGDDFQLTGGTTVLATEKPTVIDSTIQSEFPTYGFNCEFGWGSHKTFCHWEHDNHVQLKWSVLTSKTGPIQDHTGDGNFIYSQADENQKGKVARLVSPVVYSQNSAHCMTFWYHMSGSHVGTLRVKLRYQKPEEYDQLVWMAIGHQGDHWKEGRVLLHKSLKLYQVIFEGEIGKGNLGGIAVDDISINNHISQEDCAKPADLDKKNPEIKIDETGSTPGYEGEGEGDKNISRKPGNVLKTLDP

KDKPPR peptide
Kd: 500 nM
